# Test results taken from the Human Domainome abundance scans (Beltran et al. 2025).
# ± gives the uncertainty stated by the source.
# B1: POU domain, class 3, transcription factor 2, residues 356 to 411; numbered along this chain, P20265 (parent)
# chain: KKRTSIEVSVKGALESHFLKCPKPSAQEITSLADSLQLEKEVVRVWFCNRRQKEKR
# Variants of: B1
# Test: abundance fitness (aPCA) (normalised: wild type 0, dead -1); higher = more abundant; growth selection in yeast, the domain comes from the species named
# Conditions: Homo sapiens
row,Variant,abundance fitness
1,KKRTSIEVSVKGALESHFLKCPKPSAQEITSLADSLQLEKEVVRVWFCNRRIKEKR,-0.145 ± 0.15
2,KKRTSIEVSVKGALESHFLKCPKPSAQEITSLADSLQLEKEVVRVWFCNRRKKEKR,-0.001 ± 0.14
3,KKRTSIEVSVKGALESHFLKCPKPSAQEITSLADSLQLEKEVVRVWFCNRRFKEKR,-0.106 ± 0.11
4,KKRTSIEVSVKGALESHFLKCPKPSAQEITSLADSLQLEKEVVRVWFCNRRRKEKR,-0.104 ± 0.068
5,KKRTSIEVSVKGALESHFLKCPKPSAQEITSLADSLQLEKEVVRVWFCNRRLKEKR,-0.125 ± 0.075
6,KKRTSIEVSVKGALESHFLKCPKPSAQEITSLADSLQLEKEVVRVWFCNRRAKEKR,0.039 ± 0.1
7,KKRTSIEVSVKGALESHFLKCPKPSAQEITSLADSLQLEKEVVRVWFCNRRPKEKR,-0.956 ± 0.17
8,KKRTSIEVSVKGALESHFLKCPKPSAQEITSLADSLQLEKEVVRVWFCNRRTKEKR,0.039 ± 0.12
9,KKRTSIEVSVKGALESHFLKCPKPSAQEITSLADSLQLEKEVVRVWFCNRRMKEKR,-0.053 ± 0.12
10,KKRTSIEVSVKGALESHFLKCPKPSAQEITSLADSLQLEKEVVRVWFCNRRGKEKR,-0.076 ± 0.068
11,KKRTSIEVSVKGALESHFLKCPKPSAQEITSLADSLQLEKEVVRVWFCNRRVKEKR,-0.131 ± 0.094
12,KKRTSIEVSVKGALESHFLKCPKPSAQEITSLADSLQLEKEVVRVWFCNRRHKEKR,-0.002 ± 0.15
13,KKRTSIEVSVKGALESHFLKCPKPSAQEITSLADSLQLEKEVVRVWFCNRRDKEKR,0.015 ± 0.18
14,KKRTSIEVSVKGALESHFLKCPKPSAQEITSLADSLQLEKEVVRVWFCNRRWKEKR,-0.241 ± 0.11
15,KKRTSIEVSVKGALESHFLKCPKPSAQEITSLADSLQLEKEVVRVWFCNRREKEKR,0.222 ± 0.15
16,KKRTSIEVSVKGALESHFLKCPKPSAQEITSLADSLQLEKEVVRVWFCNRRSKEKR,-0.135 ± 0.085
17,KKRTSIEVSVKGALESHFLKCPKPSAQEITSLADSLQLEKEVVRVWFCNRRNKEKR,-0.007 ± 0.1
18,KKRTSIEVSVKGALESHFLKCPKPSAQEITSLADSLQLEKEVVRVWFVNRRQKEKR,-0.015 ± 0.084
19,KKRTSIEVSVKGALESHFLKCPKPSAQEITSLADSLQLEKEVVRVWFPNRRQKEKR,-0.948 ± 0.23
20,KKRTSIEVSVKGALESHFLKCPKPSAQEITSLADSLQLEKEVVRVWFRNRRQKEKR,-0.217 ± 0.091
21,KKRTSIEVSVKGALESHFLKCPKPSAQEITSLADSLQLEKEVVRVWFFNRRQKEKR,0.078 ± 0.12
22,KKRTSIEVSVKGALESHFLKCPKPSAQEITSLADSLQLEKEVVRVWFENRRQKEKR,0.149 ± 0.15
23,KKRTSIEVSVKGALESHFLKCPKPSAQEITSLADSLQLEKEVVRVWFKNRRQKEKR,0.101 ± 0.16
24,KKRTSIEVSVKGALESHFLKCPKPSAQEITSLADSLQLEKEVVRVWFLNRRQKEKR,-0.059 ± 0.092

row,Variant,abundance fitness
1,KKRTSIEVSVKGALESHFLKCPKPSAQEITSLADSLQLEKEVVRVWFMNRRQKEKR,-0.052 ± 0.15
2,KKRTSIEVSVKGALESHFLKCPKPSAQEITSLADSLQLEKEVVRVWFYNRRQKEKR,0.096 ± 0.12
3,KKRTSIEVSVKGALESHFLKCPKPSAQEITSLADSLQLEKEVVRVWFTNRRQKEKR,-0.105 ± 0.14
4,KKRTSIEVSVKGALESHFLKCPKPSAQEITSLADSLQLEKEVVRVWFNNRRQKEKR,-0.165 ± 0.19
5,KKRTSIEVSVKGALESHFLKCPKPSAQEITSLADSLQLEKEVVRVWFHNRRQKEKR,-0.118 ± 0.19
6,KKRTSIEVSVKGALESHFLKCPKPSAQEITSLADSLQLEKEVVRVWFINRRQKEKR,-0.004 ± 0.18
7,KKRTSIEVSVKGALESHFLKCPKPSAQEITSLADSLQLEKEVVRVWFQNRRQKEKR,0.141 ± 0.15
8,KKRTSIEVSVKGALESHFLKCPKPSAQEITSLADSLQLEKEVVRVWFWNRRQKEKR,-0.007 ± 0.1
9,KKRTSIEVSVKGALESHFLKCPKPSAQEITSLADSLQLEKEVVRVWFCRRRQKEKR,-0.135 ± 0.065
10,KKRTSIEVSVKGALESHFLKCPKPSAQEITSLADSLQLEKEVVRVWFCTRRQKEKR,-0.207 ± 0.097
11,KKRTSIEVSVKGALESHFLKCPKPSAQEITSLADSLQLEKEVVRVWFCIRRQKEKR,-0.249 ± 0.17
12,KKRTSIEVSVKGALESHFLKCPKPSAQEITSLADSLQLEKEVVRVWFCMRRQKEKR,-0.197 ± 0.1
13,KKRTSIEVSVKGALESHFLKCPKPSAQEITSLADSLQLEKEVVRVWFCYRRQKEKR,-0.396 ± 0.13
14,KKRTSIEVSVKGALESHFLKCPKPSAQEITSLADSLQLEKEVVRVWFCVRRQKEKR,-0.103 ± 0.12
15,KKRTSIEVSVKGALESHFLKCPKPSAQEITSLADSLQLEKEVVRVWFCDRRQKEKR,0.221 ± 0.2
16,KKRTSIEVSVKGALESHFLKCPKPSAQEITSLADSLQLEKEVVRVWFCERRQKEKR,0.066 ± 0.12
17,KKRTSIEVSVKGALESHFLKCPKPSAQEITSLADSLQLEKEVVRVWFCCRRQKEKR,-0.14 ± 0.11
18,KKRTSIEVSVKGALESHFLKCPKPSAQEITSLADSLQLEKEVVRVWFCFRRQKEKR,-0.515 ± 0.15
19,KKRTSIEVSVKGALESHFLKCPKPSAQEITSLADSLQLEKEVVRVWFCARRQKEKR,-0.239 ± 0.093
20,KKRTSIEVSVKGALESHFLKCPKPSAQEITSLADSLQLEKEVVRVWFCGRRQKEKR,-0.25 ± 0.09
21,KKRTSIEVSVKGALESHFLKCPKPSAQEITSLADSLQLEKEVVRVWFCLRRQKEKR,-0.149 ± 0.08
22,KKRTSIEVSVKGALESHFLKCPKPSAQEITSLADSLQLEKEVVRVWFCHRRQKEKR,-0.08 ± 0.19
23,KKRTSIEVSVKGALESHFLKCPKPSAQEITSLADSLQLEKEVVRVWFCWRRQKEKR,-0.18 ± 0.083
24,KKRTSIEVSVKGALESHFLKCPKPSAQEITSLADSLQLEKEVVRVWFCQRRQKEKR,-0.005 ± 0.088

row,Variant,abundance fitness
1,KKRTSIEVSVKGALESHFLKCPKPSAQEITSLADSLQLEKEVVRVWFCSRRQKEKR,-0.137 ± 0.072
2,KKRTSIEVSVKGALESHFLKCPKPSAQEITSLADSLQLEKEVVRVWFCKRRQKEKR,-0.056 ± 0.12
3,KKRTSIEVSVKGALESHFLKCPKPSAQEITSLADSLQLEKEVVRVWFCNRRQKCKR,-0.284 ± 0.15
4,KKRTSIEVSVKGALESHFLKCPKPSAQEITSLADSLQLEKEVVRVWFCNRRQKAKR,-0.255 ± 0.12
5,KKRTSIEVSVKGALESHFLKCPKPSAQEITSLADSLQLEKEVVRVWFCNRRQKDKR,-0.185 ± 0.15
6,KKRTSIEVSVKGALESHFLKCPKPSAQEITSLADSLQLEKEVVRVWFCNRDQKEKR,-0.381 ± 0.13
7,KKRTSIEVSVKGALESHFLKCPKPSAQEITSLADSLQLEKEVVRVWFCNRSQKEKR,-0.323 ± 0.1
8,KKRTSIEVSVKGALESHFLKCPKPSAQEITSLADSLQLEKEVVRVWFCNRCQKEKR,-0.442 ± 0.22
9,KKRTSIEVSVKGALESHFLKCPKPSAQEITSLADSLQLEKEVVRVWFCNRVQKEKR,-0.245 ± 0.073
10,KKRTSIEVSVKGALESHFLKCPKPSAQEITSLADSLQLEKEVVRVWFCNRWQKEKR,-0.1 ± 0.11
11,KKRTSIEVSVKGALESHFLKCPKPSAQEITSLADSLQLEKEVVRVWFCNRMQKEKR,-0.156 ± 0.1
12,KKRTSIEVSVKGALESHFLKCPKPSAQEITSLADSLQLEKEVVRVWFCNRAQKEKR,-0.136 ± 0.076
13,KKRTSIEVSVKGALESHFLKCPKPSAQEITSLADSLQLEKEVVRVWFCNRFQKEKR,-0.354 ± 0.17
14,KKRTSIEVSVKGALESHFLKCPKPSAQEITSLADSLQLEKEVVRVWFCNRIQKEKR,-0.397 ± 0.14
15,KKRTSIEVSVKGALESHFLKCPKPSAQEITSLADSLQLEKEVVRVWFCNRLQKEKR,0.061 ± 0.077
16,KKRTSIEVSVKGALESHFLKCPKPSAQEITSLADSLQLEKEVVRVWFCNRPQKEKR,-0.831 ± 0.14
17,KKRTSIEVSVKGALESHFLKCPKPSAQEITSLADSLQLEKEVVRVWFCNRTQKEKR,-0.447 ± 0.12
18,KKRTSIEVSVKGALESHFLKCPKPSAQEITSLADSLQLEKEVVRVWFCNRHQKEKR,-0.098 ± 0.17
19,KKRTSIEVSVKGALESHFLKCPKPSAQEITSLADSLQLEKEVVRVWFCNREQKEKR,-0.154 ± 0.09
20,KKRTSIEVSVKGALESHFLKCPKPSAQEITSLADSLQLEKEVVRVWFCNRNQKEKR,-0.402 ± 0.19
21,KKRTSIEVSVKGALESHFLKCPKPSAQEITSLADSLQLEKEVVRVWFCNRGQKEKR,-0.198 ± 0.081
22,KKRTSIEVSVKGALESHFLKCPKPSAQEITSLADSLQLEKEVVRVWFCNRRQYEKR,-0.545 ± 0.29
23,KKRTSIEVSVKGALESHFLKCPKPSAQEITSLADSLQLEKEVVRVWFCNRRQGEKR,-0.112 ± 0.44
24,KKRTSIEVSVKGALESHFLKCPKPSAQEITSLADSLQLEKEVVRVWFCNRRQAEKR,-0.602 ± 0.34

row,Variant,abundance fitness
1,KKRTSIEVSVKGALESHFLKCPKPSAQEITSLADSLQLEKEVVRVWFCNRRQCEKR,0.025 ± 0.47
2,KKRTSIEVSVKGALESHFLKCPKPSAQEITSLADSLQLEKEVVRVWFCNRRQHEKR,-0.204 ± 0.49
3,KKRTSIEVSVKGALESHFLKCPKPSAQEITSLADSLQLEKEVVRVWFCNRRQMEKR,0.11 ± 0.29
4,KKRTSIEVSVKGALESHFLKCPKPSAQEITSLADSLQLEKEVVRVWFCNRRQVEKR,-0.517 ± 0.35
5,KKRTSIEVSVKGALESHFLKCPKPSAQEITSLADSLQLEKEVVRVWFCNRRQTEKR,0.024 ± 0.26
6,KKRTSIEVSVKGALESHFLKCPKPSAQEITSLADSLQLEKEVVRVWFCNRRQREKR,-0.457 ± 0.31
7,KKRTSIEVSVKGALESHFLKCPKPSAQEITSLADSLQLEKEVVRVWFCNRRQDEKR,-0.234 ± 0.26
8,KKRTSIEVSVKGALESHFLKCPKPSAQEITSLADSLQLEKEVVRVWFCNRRQLEKR,-0.18 ± 0.18
9,KKRTSIEVSVKGALESHFLKCPKPSAQEITSLADSLQLEKEVVRVWFCNHRQKEKR,-0.583 ± 0.2
10,KKRTSIEVSVKGALESHFLKCPKPSAQEITSLADSLQLEKEVVRVWFCNWRQKEKR,-0.924 ± 0.13
11,KKRTSIEVSVKGALESHFLKCPKPSAQEITSLADSLQLEKEVVRVWFCNFRQKEKR,-1.05 ± 0.31
12,KKRTSIEVSVKGALESHFLKCPKPSAQEITSLADSLQLEKEVVRVWFCNARQKEKR,-0.35 ± 0.086
13,KKRTSIEVSVKGALESHFLKCPKPSAQEITSLADSLQLEKEVVRVWFCNDRQKEKR,-0.849 ± 0.19
14,KKRTSIEVSVKGALESHFLKCPKPSAQEITSLADSLQLEKEVVRVWFCNCRQKEKR,-0.868 ± 0.18
15,KKRTSIEVSVKGALESHFLKCPKPSAQEITSLADSLQLEKEVVRVWFCNSRQKEKR,-0.659 ± 0.12
16,KKRTSIEVSVKGALESHFLKCPKPSAQEITSLADSLQLEKEVVRVWFCNVRQKEKR,-1 ± 0.13
17,KKRTSIEVSVKGALESHFLKCPKPSAQEITSLADSLQLEKEVVRVWFCNMRQKEKR,-0.545 ± 0.16
18,KKRTSIEVSVKGALESHFLKCPKPSAQEITSLADSLQLEKEVVRVWFCNPRQKEKR,-0.982 ± 0.23
19,KKRTSIEVSVKGALESHFLKCPKPSAQEITSLADSLQLEKEVVRVWFCNERQKEKR,-0.398 ± 0.12
20,KKRTSIEVSVKGALESHFLKCPKPSAQEITSLADSLQLEKEVVRVWFCNNRQKEKR,-0.907 ± 0.39
21,KKRTSIEVSVKGALESHFLKCPKPSAQEITSLADSLQLEKEVVRVWFCNGRQKEKR,-0.735 ± 0.086
22,KKRTSIEVSVKGALESHFLKCPKPSAQEITSLADSLQLEKEVVRVWFCNQRQKEKR,-0.161 ± 0.16
